Test [1] addresses TSP7 S77R (scFv) (mouse). Put plainly: SPR; scFv (100 nM) captured on anti-His6-tag antibody on a CM5 chip; analyte 1.25-20 nM strand-swap dimer or 6.25-100 nM monomer construct; global fitting.
Test [2] concerns the target human P-cadherin expressed on CHO cells (human) (UniProt P22223).

Sequence of human P-cadherin expressed on CHO cells (P22223 108-829): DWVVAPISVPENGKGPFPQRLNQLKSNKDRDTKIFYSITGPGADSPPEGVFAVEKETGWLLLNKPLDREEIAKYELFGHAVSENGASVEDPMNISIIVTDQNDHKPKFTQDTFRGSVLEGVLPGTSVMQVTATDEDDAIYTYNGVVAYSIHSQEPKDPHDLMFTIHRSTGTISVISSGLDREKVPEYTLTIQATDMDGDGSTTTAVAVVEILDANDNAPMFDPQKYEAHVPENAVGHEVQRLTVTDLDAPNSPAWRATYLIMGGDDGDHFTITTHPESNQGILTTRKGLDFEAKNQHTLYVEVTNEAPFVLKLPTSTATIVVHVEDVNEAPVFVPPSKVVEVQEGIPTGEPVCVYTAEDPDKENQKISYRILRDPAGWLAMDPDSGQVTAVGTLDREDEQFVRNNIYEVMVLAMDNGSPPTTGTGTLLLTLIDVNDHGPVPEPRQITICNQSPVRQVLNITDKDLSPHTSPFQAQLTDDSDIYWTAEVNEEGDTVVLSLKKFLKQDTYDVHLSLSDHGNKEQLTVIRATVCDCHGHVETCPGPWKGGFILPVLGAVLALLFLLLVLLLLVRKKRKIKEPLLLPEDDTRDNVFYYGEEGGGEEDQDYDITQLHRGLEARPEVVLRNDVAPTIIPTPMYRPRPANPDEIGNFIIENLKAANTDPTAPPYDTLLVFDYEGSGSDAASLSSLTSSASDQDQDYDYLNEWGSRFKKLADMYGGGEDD
Sequence of TSP7 S77R (scFv) (mouse) (heavy, as listed by the source): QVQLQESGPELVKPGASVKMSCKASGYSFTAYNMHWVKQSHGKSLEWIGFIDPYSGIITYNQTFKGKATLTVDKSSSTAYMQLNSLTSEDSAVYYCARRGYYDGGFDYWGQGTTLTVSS

Turning to “human P-cadherin EC12 K14E (domain or fragment)”, in test [1], the fold change of affinity against TSP7 WT was found to be 2 fold lower. With “human P-cadherin expressed on CHO cells (from UniProt P22223 108-829) (natural protein)”, the loss of dense fluorescent puncta of P-cadherin WT-mGFP at cell-cell boundaries of CHO cells after 100 nM TSP7 (0-120 min) in test [2] is 90%.

The values above are taken from paper PMC5206748.
